Reference: PMC10681739, “High-throughput data and modeling reveal insights into the mechanisms of cooperative DNA-binding by transcription factor proteins”

Target: RUNX1 (Homo sapiens, UniProt Q01196)
Test: gcPBM; 2 nM RUNX1
Conditions: tags: N-terminal GST (pDEST15), kept (PMC6008103); label: surface-attached array probe

RUNX1, sequence (Q01196 whole entry): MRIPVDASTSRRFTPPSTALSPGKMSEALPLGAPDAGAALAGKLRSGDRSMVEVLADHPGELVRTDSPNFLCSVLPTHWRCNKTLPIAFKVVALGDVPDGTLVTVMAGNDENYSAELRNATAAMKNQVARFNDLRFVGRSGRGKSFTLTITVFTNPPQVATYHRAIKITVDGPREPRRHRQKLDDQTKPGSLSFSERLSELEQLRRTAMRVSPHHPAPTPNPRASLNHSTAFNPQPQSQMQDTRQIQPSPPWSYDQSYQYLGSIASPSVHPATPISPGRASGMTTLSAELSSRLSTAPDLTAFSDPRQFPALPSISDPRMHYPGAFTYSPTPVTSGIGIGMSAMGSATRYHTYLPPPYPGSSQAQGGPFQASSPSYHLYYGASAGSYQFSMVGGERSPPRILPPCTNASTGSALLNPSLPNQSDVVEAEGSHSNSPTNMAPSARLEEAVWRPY

B1: Table S3 C row 87 (dsDNA)
DNA 1: AGAGGAGGGGCCCGGCGGAAACTGCCGAGGTCTCCC
DNA 2: GGGAGACCTCGGCAGTTTCCGCCGGGCCCCTCCTCT
  binding signal: 733 PBM fluorescence, median of replicate spots

B2: Table S3 C row 22 (dsDNA)
DNA 1: CCGGATTGCCTTCACAGGAAGGGAAAGTCACTCCGG
DNA 2: CCGGAGTGACTTTCCCTTCCTGTGAAGGCAATCCGG
  binding signal: 737 PBM fluorescence, median of replicate spots

B3: Table S3 C row 54 (dsDNA)
DNA 1: CAGACCCCGTGGGGCAGGAAGCTGCTGGGGTAGGCC
DNA 2: GGCCTACCCCAGCAGCTTCCTGCCCCACGGGGTCTG
  binding signal: 758 PBM fluorescence, median of replicate spots

B4: Table S3 C row 161 (dsDNA)
DNA 1: CTATCCCAGGCCTCGCTTCCGGTGACATCATGTCTC
DNA 2: GAGACATGATGTCACCGGAAGCGAGGCCTGGGATAG
  binding signal: 749 PBM fluorescence, median of replicate spots

B5: Table S3 C row 50 (dsDNA)
DNA 1: GCGTGACAGAATGTGCTTCCGCTTGCGCCTCTGAGC
DNA 2: GCTCAGAGGCGCAAGCGGAAGCACATTCTGTCACGC
  binding signal: 755 PBM fluorescence, median of replicate spots

B6: Table S3 C row 75 (dsDNA)
DNA 1: GGAGCTCACCTTCCAGTTCCGGGAGGCAGGCCGGCC
DNA 2: GGCCGGCCTGCCTCCCGGAACTGGAAGGTGAGCTCC
  binding signal: 740 PBM fluorescence, median of replicate spots

B7: Table S3 C row 98 (dsDNA)
DNA 1: TCGGCGGGGCTGTACCGGAAGTTGCCTCTACTTCTG
DNA 2: CAGAAGTAGAGGCAACTTCCGGTACAGCCCCGCCGA
  binding signal: 759 PBM fluorescence, median of replicate spots

B8: Table S3 C row 15 (dsDNA)
DNA 1: CAGCCAGCCCTCGCACGGAAGCGAACTTGCTGTCAC
DNA 2: GTGACAGCAAGTTCGCTTCCGTGCGAGGGCTGGCTG
  binding signal: 769 PBM fluorescence, median of replicate spots

B9: Table S3 C row 148 (dsDNA)
DNA 1: GGCTGCCCGTACTCCCGGAAGCCGAATCCCGGCTGG
DNA 2: CCAGCCGGGATTCGGCTTCCGGGAGTACGGGCAGCC
  binding signal: 775 PBM fluorescence, median of replicate spots

B10: Table S3 C row 25 (dsDNA)
DNA 1: CTCCAGGGGTGTCACCGGAAAAAGCCGTTTCTGGAG
DNA 2: CTCCAGAAACGGCTTTTTCCGGTGACACCCCTGGAG
  binding signal: 765 PBM fluorescence, median of replicate spots

B11: Table S3 C row 153 (dsDNA)
DNA 1: CCGCCTTCAGGGCGGCGGAAGTCGCTGGCTGCTCTT
DNA 2: AAGAGCAGCCAGCGACTTCCGCCGCCCTGAAGGCGG
  binding signal: 759 PBM fluorescence, median of replicate spots

B12: Table S3 C row 41 (dsDNA)
DNA 1: CAGACTCGGCGTCGGCTTCCGGCGGCGTCAGAGACG
DNA 2: CGTCTCTGACGCCGCCGGAAGCCGACGCCGAGTCTG
  binding signal: 762 PBM fluorescence, median of replicate spots

B13: Table S3 C row 69 (dsDNA)
DNA 1: TCCCCGAGCGTGCAGCTTCCGGTGAGGGCAGCCCCA
DNA 2: TGGGGCTGCCCTCACCGGAAGCTGCACGCTCGGGGA
  binding signal: 735 PBM fluorescence, median of replicate spots

B14: Table S3 C row 174 (dsDNA)
DNA 1: TTGCTCTGCGCATGGCGGAAAGGGTGCGCCGCCTGT
DNA 2: ACAGGCGGCGCACCCTTTCCGCCATGCGCAGAGCAA
  binding signal: 735 PBM fluorescence, median of replicate spots

B15: Table S3 C row 111 (dsDNA)
DNA 1: GGATCCAGGACACTCCGGAAGACATCGTGCTGGAAG
DNA 2: CTTCCAGCACGATGTCTTCCGGAGTGTCCTGGATCC
  binding signal: 774 PBM fluorescence, median of replicate spots

B16: Table S3 C row 36 (dsDNA)
DNA 1: GGACGGCCTCTGAAGCTTCCGCGCCGACTTCTCCGA
DNA 2: TCGGAGAAGTCGGCGCGGAAGCTTCAGAGGCCGTCC
  binding signal: 741 PBM fluorescence, median of replicate spots

B17: Table S3 C row 93 (dsDNA)
DNA 1: TCCTTCCCTGGCAACAGGAAGTGAAAATGCCAGGCC
DNA 2: GGCCTGGCATTTTCACTTCCTGTTGCCAGGGAAGGA
  binding signal: 766 PBM fluorescence, median of replicate spots

B18: Table S3 C row 154 (dsDNA)
DNA 1: CCGGCTCATCTGGTATTTCCTGAGCACCTGCGACGT
DNA 2: ACGTCGCAGGTGCTCAGGAAATACCAGATGAGCCGG
  binding signal: 757 PBM fluorescence, median of replicate spots

B19: Table S3 C row 66 (dsDNA)
DNA 1: CCAGGACAGCACCTATTTCCTGCTGGTGTAACAGAG
DNA 2: CTCTGTTACACCAGCAGGAAATAGGTGCTGTCCTGG
  binding signal: 778 PBM fluorescence, median of replicate spots

B20: Table S3 C row 52 (dsDNA)
DNA 1: TTTCGCCGACCCCGCCGGAAGACCAGGCCGGCGCGG
DNA 2: CCGCGCCGGCCTGGTCTTCCGGCGGGGTCGGCGAAA
  binding signal: 732 PBM fluorescence, median of replicate spots

B21: Table S3 C row 77 (dsDNA)
DNA 1: TCGGGCCGGGAGCCGGTTCCGGCTGAGTCGGCAGGG
DNA 2: CCCTGCCGACTCAGCCGGAACCGGCTCCCGGCCCGA
  binding signal: 765 PBM fluorescence, median of replicate spots

B22: Table S3 C row 9 (dsDNA)
DNA 1: CGTGACGCAGGGAAAGTTCCGGCTTCGGCCTCCGCC
DNA 2: GGCGGAGGCCGAAGCCGGAACTTTCCCTGCGTCACG
  binding signal: 736 PBM fluorescence, median of replicate spots

B23: Table S3 C row 102 (dsDNA)
DNA 1: CCCCGCGTCCCAGACCGGAAGAAGCCCGGCGCAGAC
DNA 2: GTCTGCGCCGGGCTTCTTCCGGTCTGGGACGCGGGG
  binding signal: 770 PBM fluorescence, median of replicate spots

B24: Table S3 C row 191 (dsDNA)
DNA 1: GATTGGTTCTCTAAGCTTCCGTCAGTTTACAATCCT
DNA 2: AGGATTGTAAACTGACGGAAGCTTAGAGAACCAATC
  binding signal: 775 PBM fluorescence, median of replicate spots

B25: Table S3 C row 112 (dsDNA)
DNA 1: ACGTTGCCTCACTGCAGGAAGTGACCCAGGCCTTGC
DNA 2: GCAAGGCCTGGGTCACTTCCTGCAGTGAGGCAACGT
  binding signal: 771 PBM fluorescence, median of replicate spots

B26: Table S3 C row 89 (dsDNA)
DNA 1: AGCACAGCTTCGGGCCGGAATCACGATCCACCAGAC
DNA 2: GTCTGGTGGATCGTGATTCCGGCCCGAAGCTGTGCT
  binding signal: 755 PBM fluorescence, median of replicate spots

B27: Table S3 C row 49 (dsDNA)
DNA 1: TGGGACTGACTGAGTCTTCCGTGTGTCGCCGCCGTT
DNA 2: AACGGCGGCGACACACGGAAGACTCAGTCAGTCCCA
  binding signal: 756 PBM fluorescence, median of replicate spots

B28: Table S3 C row 179 (dsDNA)
DNA 1: CACAAGCGAAACATTCGGAAGCAATTTACTTGCAGC
DNA 2: GCTGCAAGTAAATTGCTTCCGAATGTTTCGCTTGTG
  binding signal: 751 PBM fluorescence, median of replicate spots

B29: Table S3 C row 193 (dsDNA)
DNA 1: CCGACCCCGCTGCCCCGGAAGGTGAGGCAAGCCTGG
DNA 2: CCAGGCTTGCCTCACCTTCCGGGGCAGCGGGGTCGG
  binding signal: 761 PBM fluorescence, median of replicate spots

B30: Table S3 C row 82 (dsDNA)
DNA 1: TGATGGGGATCGGTCCGGATGTACTTCAACATCTTT
DNA 2: AAAGATGTTGAAGTACATCCGGACCGATCCCCATCA
  binding signal: 747 PBM fluorescence, median of replicate spots

B31: Table S3 C row 57 (dsDNA)
DNA 1: TTCATTGTTAGGGAACATCCGGGCCTGTCCCCTCCC
DNA 2: GGGAGGGGACAGGCCCGGATGTTCCCTAACAATGAA
  binding signal: 752 PBM fluorescence, median of replicate spots

B32: Table S3 C row 86 (dsDNA)
DNA 1: CGCGTGATGGACGCCCGGAAGCCGGCACAACAAATG
DNA 2: CATTTGTTGTGCCGGCTTCCGGGCGTCCATCACGCG
  binding signal: 777 PBM fluorescence, median of replicate spots

B33: Table S3 C row 108 (dsDNA)
DNA 1: TCTGCCCTCCCAGCACTTCCGGGCTGGCAGAAGAGC
DNA 2: GCTCTTCTGCCAGCCCGGAAGTGCTGGGAGGGCAGA
  binding signal: 763 PBM fluorescence, median of replicate spots

B34: Table S3 C row 24 (dsDNA)
DNA 1: CCCACGCTCTGCGTGCTTCCGGCGAGCAAAGCCCCG
DNA 2: CGGGGCTTTGCTCGCCGGAAGCACGCAGAGCGTGGG
  binding signal: 766 PBM fluorescence, median of replicate spots

B35: Table S3 C row 127 (dsDNA)
DNA 1: CTCCGAACTTAGGACAGGAAGAAACAGGCACATTTC
DNA 2: GAAATGTGCCTGTTTCTTCCTGTCCTAAGTTCGGAG
  binding signal: 751 PBM fluorescence, median of replicate spots

B36: Table S3 C row 23 (dsDNA)
DNA 1: CCCAGCCGGCCTGGACATCCGCCCCGCGCGCGGCGT
DNA 2: ACGCCGCGCGCGGGGCGGATGTCCAGGCCGGCTGGG
  binding signal: 759 PBM fluorescence, median of replicate spots

B37: Table S3 C row 164 (dsDNA)
DNA 1: GGGCTGGGTGGAGACAGGAAGCTTCAGAGCCACTCC
DNA 2: GGAGTGGCTCTGAAGCTTCCTGTCTCCACCCAGCCC
  binding signal: 735 PBM fluorescence, median of replicate spots

B38: Table S3 C row 72 (dsDNA)
DNA 1: CCCCGTCCACGGCCCCGGAAGCTGACGTCGCCGAAG
DNA 2: CTTCGGCGACGTCAGCTTCCGGGGCCGTGGACGGGG
  binding signal: 733 PBM fluorescence, median of replicate spots

B39: Table S3 C row 124 (dsDNA)
DNA 1: ACTTGGGGCATGCAATTTCCGGCAGCACAGAAAACA
DNA 2: TGTTTTCTGTGCTGCCGGAAATTGCATGCCCCAAGT
  binding signal: 766 PBM fluorescence, median of replicate spots

B40: Table S3 C row 53 (dsDNA)
DNA 1: GCTGGGACGCCAGACCTTCCGGGTTGCCCGGCCCCG
DNA 2: CGGGGCCGGGCAACCCGGAAGGTCTGGCGTCCCAGC
  binding signal: 748 PBM fluorescence, median of replicate spots

B41: Table S3 C row 110 (dsDNA)
DNA 1: AGCTTATCATCGTCACGGAAGCCCCGCCAGGTGGCG
DNA 2: CGCCACCTGGCGGGGCTTCCGTGACGATGATAAGCT
  binding signal: 759 PBM fluorescence, median of replicate spots

B42: Table S3 C row 192 (dsDNA)
DNA 1: CCGCGCAAGCCCCGACATCCGGTTGGCCGGCGTGGG
DNA 2: CCCACGCCGGCCAACCGGATGTCGGGGCTTGCGCGG
  binding signal: 751 PBM fluorescence, median of replicate spots

B43: Table S3 C row 107 (dsDNA)
DNA 1: CTCGAGCCCGCTCGGCTTCCGTAGCCCCGCCCCATC
DNA 2: GATGGGGCGGGGCTACGGAAGCCGAGCGGGCTCGAG
  binding signal: 743 PBM fluorescence, median of replicate spots

B44: Table S3 C row 160 (dsDNA)
DNA 1: ACCCCGTAGCCGGCGCTTCCTGCCGAGGCTGGGGTC
DNA 2: GACCCCAGCCTCGGCAGGAAGCGCCGGCTACGGGGT
  binding signal: 766 PBM fluorescence, median of replicate spots

B45: Table S3 C row 150 (dsDNA)
DNA 1: TCTGAACTCTGACAACTTCCTGTCGCTCTGAGTGTG
DNA 2: CACACTCAGAGCGACAGGAAGTTGTCAGAGTTCAGA
  binding signal: 757 PBM fluorescence, median of replicate spots
